This is an account of results in paper PMC8172861, “Structural and phylogenetic analyses of resistance to next-generation aminoglycosides conferred by AAC(2′) enzymes” (Scientific Reports, 2021).

This data set concerns the molecule itself. Kind of data set: crystal structure; crystals grown at 4 °C by sitting-drop vapour diffusion, 10 mg/mL AAC(2′)-Ia with 10 mM acetyl-CoA and 10 mM antibiotic (tobramycin, netilmicin or amikacin); two chains (A and B) in the models.

B1: AAC(2′)-Ia from Providencia stuartii (enzyme)
chain: MGIEYRSLHTSQLTLSEKEALYDLLIEGFEGDFSHDDFAHTLGGMHVMAFDQQKLVGHVAIIQRHMALDNTPISVGYVEAMVVEQSYRRQGIGRQLMLQTNKIIASCYQLGLLSASDDGQKLYHSVGWQIWKGKLFELKQGSYIRSIEEEGGVMGWKADGEVDFTASLYCDFRGGDQW
notes: AAC(2′)-Ia, aminoglycoside 2′-N-acetyltransferase from Providencia stuartii; synthesized gene in pET-15b (NdeI/BamHI); Crystallised with acetyl-CoA or CoA and an aminoglycoside; also called aminoglycoside (2′)-N-acetyltransferase; source: E. coli BL21(DE3), purified (Ni-IDA-Sepharose, thrombin cleavage, benzamidine column, DEAE Sepharose); not shown: HIS-tag, N-terminal, cleaved
In the case of B1, the binding result is given as “binds”.
